Reference: patent publication US20230087785A1, “Leucine-Rich Repeat Kinase 2 Allosteric Modulators” (VIB VZW, priority 2020, published 2023)
Each block holds one molecule with its values, some of them ahead of it.

Assays:
LRRK2 (wild-type) = target: T1, LRRK2 (wild-type) (Homo sapiens, UniProt Q5S007, M2397T/R50H); assay: In vitro peptide phosphorylation (PhosphoSens kinase) assay; assay type: biochemical; details: 25 μM Nb; 10 μM AQT0615 peptide
T1 construct: Full-length human LRRK2 was expressed and purified based on previously developed protocols; SF tag (FLAG-tag + Twin-Strep-tag); made in house; host or cells: HEK 293T
Experimental: FIGS. 4A and 4B. Modulation of in vitro kinase activity by LRRK2-targeting Nbs. (FIG. 4A) Effect of selected LRRK2-targeting Nbs on LRRK2 kinase activity measured using the fluorescence-based PhosphoSens® Protein Kinase Assay, using the LRRK2-optimized AQT0615 peptide as substrate at a fixed concentration of 10 μM, and in the presence of 1 mM or 0.1 mM ATP, respectively. The influence of the different Nbs at a concentration of 25 μM on the relative kinase activity compared to the control where no Nb was added (“No Nb”) is plotted. […] (FIG. 4B) The influence of the different Nbs (25 μM) on the relative kinase activity compared to the “No-Nb” control is plotted, either in presence of 500 μM GDP (top) or 500 μM GTPγS (bottom). […] Each bar reflects the average (±SD) of three independent measurements.
Hereto, we used the fluorescence-based PhosphoSens® Protein Kinase Assay (AssayQuant Technologies Inc.), using the LRRK2-optimized AQT0615 peptide as substrate at a fixed concentration of 10 μM. The increase in fluorescence (Δexc:360 nm; Δemm:485 nm) due to LRRK2-catalyzed peptide phosphorylation was measured continuously in time under initial rate conditions at an ATP concentration of either 0.1 and 1 mM. Subsequently, the 10 Nbs were added at a final concentration of 25 μM and the effect on the initial rate was determined in triplicate (FIG. 4A). Two negative controls, where either no Nb or an irrelevant Nb was added, were also included. […] These experiments were performed in addition with LRRK2 either in the presence of a large excess (500 μM) of GDP or GTPγS (FIG. 4B), but no significant influence of the nucleotide on the inhibition profile was observed.
The Nb concentration was varied from 200 or 150 μM to 0.006 μM in a two-fold serial dilution, while keeping the peptide and ATP substrate concentrations constant at 10 μM and 1 mM, respectively (FIG. 11A-C).
The influence of the purified Nbs on LRRK2 kinase activity was determined using the PhosphoSens® Protein Kinase Assay (AssayQuant Technologies Inc.) using the optimized LRRK2 AQT0615 peptide as substrate and according to the manufacturers' instructions. The continuous kinase assay was performed in a total volume of 50 μL in a black half area 96 well plate. Each reaction mixture contained 10 μM AQT0615 peptide substrate/probe, either 0.1 mM or 1 mM ATP and 500 μM of either GDP, or GTPγS in a buffer consisting of 50 mM HEPES pH 7.5, 0.1% Brij-35, 50 mM NaCl and 10 mM MgCl2. The reaction was initiated by addition of a final concentration of 80 nM of LRRK2 either in absence or presence of 25 μM Nb. Prior to addition, LRRK2 and the Nbs were pre-incubated for 30 minutes on ice. The LRRK2-catalyzed phosphorylation of the peptide substrate/probe is followed continuously at 30° C. in a plate reader with excitation and emission wavelength of 360 nm and 485 nm respectively. Time traces were corrected by subtracting the “no LRRK2” control. The initial rates were determined from the slope of the linear portion of the curve.
To determine IC50 values the Nb concentration was varied from 150 μM to 0.006 μM using a two-fold serial dilution. In these assays a final LRRK2 concentration of 150 nM and an ATP concentration of 1 mM was used. The relative LRRK2 activity (compared to the “no nanobody” control) was plotted against the logarithmic Nb concentration and fitted on a three-parameter log(inhibitor) vs response equation in the GraphPad Prism software. All time traces were collected in triplicate.

LRRK2 = target: T2, LRRK2 (Homo sapiens, UniProt Q5S007, M2397T/R50H); assay: Competition ELISA titration; assay type: binding; details: Nb 450 nM to 0.2 nM; for shift of the Nb ELISA titration curve in presence of AdoCbl: 250 μM; for shift of the Nb ELISA titration curve in presence of MLi-2: large excess of MLi-2 (1 μM)
T2 construct: Full-length human LRRK2 was expressed and purified based on previously developed protocols; SF tag (FLAG-tag + Twin-Strep-tag); made in house; host or cells: HEK 293T
Source text: LRRK2 was coated in the wells of the ELISA plate and the ELISA signal for a dilution series of the respective Nbs (detected via their C-terminal EPEA-tag) is plotted in function of the Nb concentration. […] A “no antigen control”, where no LRRK2 was coated on the bottom of the well, is also included.
Most currently described LRRK2 inhibitors bind directly to the ATP-binding pocket of the kinase domain. […] Two of the in vitro kinase activity inhibiting Nbs described herein (Nb 1 and Nb6) bind LRRK2 predominantly via interactions with the COR-B domain, thus proposing a novel mechanism of action, and thereby excluding a mechanism of inhibition similar to these previously described LRRK2 kinase inhibitors that all directly interact with the kinase domain. […] To verify and confirm that Nb1, Nb6 and Nb23 bind LRRK2 in a different mode than any known small molecule kinase inhibitor, thus also different that the reported vitamin B12 forms, a competition ELISA titration experiment was performed (FIGS. 17A-17C). In this experimental setup, the ELISA experiment was performed using a fixed concentration of LRRK2 coated on the bottom of the ELISA plate, and using a dilution series of either of the three Nbs ranging from 450 nM to 0.2 nM. Detection of Nb binding in ELISA is performed using their C-terminal EPEA-tag, resulting in a dose-response titration curve reflecting an apparent affinity of the Nbs. […] Additionally, as a positive control, a repetition of the setup was performed in presence of an excess (9 μm) of the corresponding untagged Nb.
The ELISA experiment was performed similar as described above, using a fixed concentration of LRRK2 coated on the bottom of the ELISA plate, and using a 1:4 dilution series of Nb1, Nb6 or Nb23 ranging from 450 nM to 0.2 nM. Detection of Nb binding was performed using the C-terminal EPEA tag of the Nbs as described before, resulting in a dose response titration curve reflecting an apparent affinity of the Nbs. […] A “no antigen control”, where no LRRK2 was coated on the bottom of the well, was also included. The absorbance signal (A405 nm) was read out at different time points and the A405 nm at 0.5 h (Nb6 and Nb23) or 10 h (Nb1) was plotted in function of the Nb concentration.

T1 sequence (Q5S007 whole entry R50H/M2397T): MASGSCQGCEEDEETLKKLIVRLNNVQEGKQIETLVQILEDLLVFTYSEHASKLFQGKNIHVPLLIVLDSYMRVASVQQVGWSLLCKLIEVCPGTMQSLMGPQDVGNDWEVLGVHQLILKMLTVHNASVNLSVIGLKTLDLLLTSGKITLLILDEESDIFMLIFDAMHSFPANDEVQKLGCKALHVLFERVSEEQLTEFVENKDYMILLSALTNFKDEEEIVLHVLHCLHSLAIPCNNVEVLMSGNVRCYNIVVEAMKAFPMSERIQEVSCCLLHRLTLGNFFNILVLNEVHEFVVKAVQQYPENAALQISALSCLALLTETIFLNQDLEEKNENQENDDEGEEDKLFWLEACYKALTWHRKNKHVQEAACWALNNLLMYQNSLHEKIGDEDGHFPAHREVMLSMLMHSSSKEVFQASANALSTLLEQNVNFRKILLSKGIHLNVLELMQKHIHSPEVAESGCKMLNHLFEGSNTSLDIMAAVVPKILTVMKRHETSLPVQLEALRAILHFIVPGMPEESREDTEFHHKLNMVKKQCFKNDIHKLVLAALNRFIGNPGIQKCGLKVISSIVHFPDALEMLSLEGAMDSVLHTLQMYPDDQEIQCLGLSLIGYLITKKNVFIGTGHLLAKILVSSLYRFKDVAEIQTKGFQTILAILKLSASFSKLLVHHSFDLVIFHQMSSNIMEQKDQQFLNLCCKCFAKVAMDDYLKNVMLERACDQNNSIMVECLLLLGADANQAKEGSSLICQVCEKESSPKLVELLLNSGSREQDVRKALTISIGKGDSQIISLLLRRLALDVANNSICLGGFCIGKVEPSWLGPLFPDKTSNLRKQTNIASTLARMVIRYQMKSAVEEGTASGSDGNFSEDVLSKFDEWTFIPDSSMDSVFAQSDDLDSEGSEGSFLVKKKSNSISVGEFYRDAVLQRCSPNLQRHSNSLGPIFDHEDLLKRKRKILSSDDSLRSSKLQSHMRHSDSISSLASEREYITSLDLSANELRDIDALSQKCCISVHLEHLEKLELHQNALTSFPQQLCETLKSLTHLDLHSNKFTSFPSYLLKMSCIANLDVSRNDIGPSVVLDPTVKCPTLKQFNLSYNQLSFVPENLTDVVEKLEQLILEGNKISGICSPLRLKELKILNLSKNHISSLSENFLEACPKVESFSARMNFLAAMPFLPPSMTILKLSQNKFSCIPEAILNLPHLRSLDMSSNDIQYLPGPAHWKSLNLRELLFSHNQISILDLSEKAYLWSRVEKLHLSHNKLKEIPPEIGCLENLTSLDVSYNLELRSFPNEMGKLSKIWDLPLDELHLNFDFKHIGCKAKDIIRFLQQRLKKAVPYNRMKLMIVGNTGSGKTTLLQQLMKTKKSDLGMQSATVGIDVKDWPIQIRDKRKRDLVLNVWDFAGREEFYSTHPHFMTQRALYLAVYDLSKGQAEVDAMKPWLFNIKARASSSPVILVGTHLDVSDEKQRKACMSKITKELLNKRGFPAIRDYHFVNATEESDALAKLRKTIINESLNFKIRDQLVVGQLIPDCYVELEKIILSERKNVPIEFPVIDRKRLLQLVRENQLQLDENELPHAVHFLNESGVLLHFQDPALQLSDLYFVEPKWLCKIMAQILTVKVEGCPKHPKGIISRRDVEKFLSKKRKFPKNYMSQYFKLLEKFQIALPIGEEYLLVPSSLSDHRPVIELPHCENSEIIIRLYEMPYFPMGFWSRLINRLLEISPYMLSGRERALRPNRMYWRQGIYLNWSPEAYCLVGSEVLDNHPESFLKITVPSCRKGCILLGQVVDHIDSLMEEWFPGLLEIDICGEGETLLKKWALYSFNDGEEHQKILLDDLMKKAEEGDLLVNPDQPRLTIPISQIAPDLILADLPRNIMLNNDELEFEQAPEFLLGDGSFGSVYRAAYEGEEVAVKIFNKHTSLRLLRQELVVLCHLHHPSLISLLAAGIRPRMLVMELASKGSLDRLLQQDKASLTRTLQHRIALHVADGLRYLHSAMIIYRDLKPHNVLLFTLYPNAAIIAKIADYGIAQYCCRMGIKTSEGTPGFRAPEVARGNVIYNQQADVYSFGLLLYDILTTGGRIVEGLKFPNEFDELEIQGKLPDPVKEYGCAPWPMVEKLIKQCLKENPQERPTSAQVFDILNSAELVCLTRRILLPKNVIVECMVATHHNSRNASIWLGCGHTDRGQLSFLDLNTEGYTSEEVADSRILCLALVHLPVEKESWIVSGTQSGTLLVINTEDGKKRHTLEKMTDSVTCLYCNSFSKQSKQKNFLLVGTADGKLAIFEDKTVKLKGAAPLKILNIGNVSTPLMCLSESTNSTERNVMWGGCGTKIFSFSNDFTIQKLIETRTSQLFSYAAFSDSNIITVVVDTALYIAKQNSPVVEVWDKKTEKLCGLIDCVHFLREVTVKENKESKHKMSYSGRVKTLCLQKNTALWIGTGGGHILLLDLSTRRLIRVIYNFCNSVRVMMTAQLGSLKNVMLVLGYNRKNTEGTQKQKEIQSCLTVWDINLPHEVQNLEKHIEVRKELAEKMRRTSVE
T2 sequence (Q5S007 whole entry R50H/M2397T): as above

B1: Nb22: LRRK2-specific Nanobody, SEQ ID NO: 9 (protein)
VHH: MAQVQLVESGGGLVQAGGSLRLSCAASGRTFSSYTMGWFRQAPGKEREFVAAIRWSGGSTYYADSVKGRFTISRDNAKNTVYLQMNSLKPEDTAVYYCAASDRGGFIATSGGWMDYWGKGTQVTVSS
modifications: Nanobody CA13611
effect on in vitro LRRK2 kinase activity (LRRK2 (wild-type)): activates the kinase activity of LRRK2 in vitro

B3: Nb1: LRRK2-specific Nanobody, SEQ ID NO: 1 (protein)
VHH: MAQVQLVESGGGLVQAGGSLRLSCVASGRIFSGNAMGWYRQAPGRQRELVAGITNGGYTNYRQFVKGRFTISRDNAKRTVYLQMNSLKPEDTAVYYCNALDREARQVDYWGQGTQVTVSS
modifications: Nanobody CA12610
shift of the Nb ELISA titration curve in presence of AdoCbl (LRRK2): no rightward shift is observed
shift of the Nb ELISA titration curve in presence of MLi-2 (LRRK2): no rightward shift is observed
effect on in vitro LRRK2 kinase activity (LRRK2 (wild-type)): very clear significant inhibiting effect

B4: Nb42: LRRK2-specific Nanobody, SEQ ID NO: 6 (protein)
VHH: MAQVQLVESGGGLVQAGGSLRLSCAASGDVNYAVGWFRQAPRKEREFVAAINWRGDNTDYTDSVKGRFTISRDNAKNTVYLQMNSLKPEDTAVYYCAAKSAPYWYSDIAPDYWGQGTQVTVSS
modifications: Nanobody CA14259
effect on in vitro LRRK2 kinase activity (LRRK2 (wild-type)): no inhibitory effect could be observed in vitro

The next lines start with results.

shift of the Nb ELISA titration curve in presence of AdoCbl (LRRK2): no rightward shift is observed
shift of the Nb ELISA titration curve in presence of MLi-2 (LRRK2): no rightward shift is observed
B2: Nb23: LRRK2-specific Nanobody, SEQ ID NO: 3 (protein)
VHH: MAQVQLVESGGGLVQAGGSLRLSCAASGRTFSRYTMGWFRQAPGKDREFVARITTSGAVTTYADSAKGRFTISRDNAKNTVYLQMNTLKPEDTAVYYCAAGQGQLSSQSRFVDYWGQGTQVTVSS
modifications: Nanobody CA13612
effect on in vitro LRRK2 kinase activity (LRRK2 (wild-type)): (to a lesser extent) Nb23 (CA13612), have a very clear significant inhibiting effect

shift of the Nb ELISA titration curve in presence of AdoCbl (LRRK2): no rightward shift is observed
shift of the Nb ELISA titration curve in presence of MLi-2 (LRRK2): no rightward shift is observed
B5: Nb6: LRRK2-specific Nanobody, SEQ ID NO: 2 (protein)
VHH: MAQVQLVESGGGLVQAGGSLRLSCAASGSIFSPTAMGWYRQAPGKERELVAGITSGGYTNYRNFARGRFTISRDNAKKTVYLQMNSLNPEDTAVYYCNTLTISWSWGQGTQVTVSS
modifications: Nanobody CA12618
effect on in vitro LRRK2 kinase activity (LRRK2 (wild-type)): very clear significant inhibiting effect
